Test results: the supplement of paper PMC9732359
± gives the uncertainty stated by the source.

Experiment: protein stability index of a GFP-peptide fusion (yeast GPS) (PSI 1-4); higher = more stable; sorted into four equal gates, so the index is relative within each strain
Conditions: san1∆
In short: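 Tiled 17-residue peptides from yeast proteins were fused downstream of GFP on a plasmid that also expresses Cherry, and the pooled library was carried in yeast. Mid-log cultures grown in leucine-free medium were sorted into four equal gates by GFP/Cherry fluorescence ratio. Plasmids from each gate were PCR-amplified and Illumina-sequenced, and reads were assigned to strains by barcodes. Each peptide's protein stability index is the sum, over gates, of the gate's read frequency multiplied by its gate number.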

Row | Sequence | protein stability index
1 | PEDALVNDFSDITSDQL [SMC3] | 3.15 ± 0.081

Same assay, conditions: ubr1∆

Row | Sequence | protein stability index
2 | NKQPRNESFNRRISSMP [YAR002W/NUP60] | 2.99 ± 0.038
3 | NKSTSSEAEYSKDIETL [YIL149C/MLP2] | 3.26 ± 0.072
4 | NKTAHLSIPGKSTPEGT [SNU114] | 3.01 ± 0.038
5 | NKTKAVDNTVPSTTLFN [YOR098C/NUP1] | 3.15 ± 0.055
6 | NKVVVNLNDAGLALQLF [RPN2] | 1.85 ± 0.091
7 | NLFKINSIDVPIRINST [YMR129W/POM152] | 2.17 ± 0.033
8 | NLGEYYAQIGDKDNAEK [RPN7] | 2.47 ± 0.053
9 | NLGIPKIAYRGVKDCQE [SSN2] | 1.13 ± 0.16
10 | NLGRAVFWEIQSRVPTS [PRP8] | 2.4 ± 0.18
11 | NLHAEGWPKLQLGPQTP [ECM29] | 2.9 ± 0.24
12 | NLLPKKSAKTAKASQEL [HTA2] | 3.18 ± 0.048
13 | NLLVLRGKNEIIQNAQR [RPO21] | 1.26 ± 0.085
14 | NLNTDKLKNNASRSQLE [YJL039C/NUP192] | 2.69 ± 0.064
15 | NLNVYIQVFEKPFLKKT [CDC53] | 2.63 ± 0.057
16 | NLPPHYALFLKALRRKI [SSN2] | 1.7 ± 0.087
17 | NLQQDKTNFQDVILDYQ [REC8] | 3.12 ± 0.041
18 | NLSSTPMETLLSGLSAD [YML031W/NDC1] | 2.42 ± 0.038
19 | NLTPANILNMSMNNDFQ [PGD1] | 2.89 ± 0.052
20 | NMEIRNLRLKILTIIEE [GRR1] | 1.33 ± 0.046
21 | NMNNGGKELDSLDLNNL [PGD1] | 3.26 ± 0.065
22 | NMTTIADRNDDDEGSFA [SRB6] | 3.44 ± 0.079
23 | NMVRNNNNNTIDESMPD [GRR1] | 3.12 ± 0.052
24 | NNETEQLKAEEKKILNQ [SMC1] | 3.01 ± 0.11
25 | NNGDKDHLKLVSLFSNL [YIL149C/MLP2] | 2.44 ± 0.096
26 | NNIEENLRLLNSIDSTS [ECM29] | 3.21 ± 0.046
27 | NNNGLPQNGNINNNINI [GAL11] | 3.11 ± 0.048

Row | Sequence | protein stability index
28 | NNNGNSAASKKKKNKNK [SRP21] | 3.14 ± 0.057
29 | NNNSSNEKEQLSFINPK [SEC65] | 2.92 ± 0.036
30 | NNPKIQTKDSVKEIVLP [IRR1] | 3.11 ± 0.051
31 | NNPKVKTSKRTKRWYKN [RPS11A] | 3.19 ± 0.087
32 | NNPQVVNAITVAQQQVQ [SNF5] | 1.99 ± 0.035
33 | NNQSKEKADYEDEMMHE [RPN12] | 2.53 ± 0.052
34 | NNTHVGRQFCNRLSRIH [YLR018C/POM34] | 1.95 ± 0.089
35 | NNTNTDNVSGLTRNAPL [SNF2] | 3.16 ± 0.037
36 | NPFTSATSSTNANAGLF [YOR098C/NUP1] | 3.31 ± 0.074
37 | NPYNIVPQGKIVALTNA [SMC3] | 3.11 ± 0.078
38 | NQIWNIALNLASKKFGK [SSN2] | 3.08 ± 0.056
39 | NQLTESASHFEQYTKKI [YJL041W/NSP1] | 2.5 ± 0.095
40 | NQNSSTGAGAFGTGQST [YJL041W/NSP1] | 2.6 ± 0.048
41 | NRPNTLDPALLRPGRID [RPT1] | 2.61 ± 0.13
42 | NRQQKKRRFDPSSSDSN [RRP6] | 3.19 ± 0.067
43 | NRQTLMFTATMTPVIEK [PRP28] | 2.44 ± 0.043
44 | NRQVMHKMGVERSSKRL [SIR3] | 3.34 ± 0.19
45 | NRSEQNGQEQQGPVKNT [RGR1] | 3.55 ± 0.22
46 | NSCFSDGSQQNLQQDKT [REC8] | 2.88 ± 0.059
47 | NSDDIIDVDMDASPAPS [SRB5] | 3 ± 0.072
48 | NSDDILSLHENYPQDEI [POP1] | 2.92 ± 0.05
49 | NSDKPRDVYVFDKVEVQ [DIS3] | 3 ± 0.059
50 | NSESTTQGGNVNLDNTA [RPT5] | 3.11 ± 0.087
51 | NSFYYTSLLYLSTLEPS [RPN9] | 1.77 ± 0.041
52 | NSGKQQYYRGLPLYEKN [SWP82] | 3.01 ± 0.043
53 | NSIDINYKGLPKKYKEN [SMC1] | 3.36 ± 0.059

Row | Sequence | protein stability index
54 | NSIKNVPPILIILPLDN [SSN2] | 1.82 ± 0.068
55 | NSINNNNIKNGTNNISQ [YDL088C/ASM4] | 2.98 ± 0.035
56 | NSITKDNIDYAPMRLAT [YJL039C/NUP192] | 2.57 ± 0.035
57 | NSLKETLQDFHLIFSNA [SNF2] | 2.44 ± 0.092
58 | NSNINTLTASPDGTLIA [ASC1] | 2.82 ± 0.046
59 | NSNTTNQNSSTGAGAFG [YJL041W/NSP1] | 2.96 ± 0.05
60 | NSRGKFDDACNQIWNIA [SSN2] | 3.09 ± 0.14
61 | NSSEEDKKKGQNVTSET [ITC1] | 3.29 ± 0.11
62 | NSSTSPAPSIPSTGFKF [YLR335W/NUP2] | 2.21 ± 0.028
63 | NSTATMQHNPLAGKRGP [PGD1] | 3.03 ± 0.033
64 | NSTSKNTLLQQQNYSKV [SWI1] | 2.68 ± 0.06
65 | NTEITQKSSKENIENEE [ECM29] | 2.94 ± 0.09
66 | NTFQKTVEPVYQMHIKT [FAS1] | 1.5 ± 0.059
67 | NTHNKSTKRVTKHPSLK [POP7] | 2.72 ± 0.046
68 | NTILNSSSDFRLHYYPK [BRR2] | 3.11 ± 0.042
69 | NTKVPVDIVNQWFLQYQ [YML103C/NUP188] | 2.18 ± 0.034
70 | NTNPSPLKTQTKNGTPN [GAL11] | 2.94 ± 0.04
71 | NTPLSLPTRGTLESLEN [COR1] | 2.41 ± 0.065
72 | NTRKNMSISLESSKALA [DIS3] | 2.08 ± 0.078
73 | NTTKTADTKAPTFTFGS [YLR335W/NUP2] | 3.38 ± 0.057
74 | NTVMLQGIFKNSSNYFG [AAR2] | 1.46 ± 0.2
75 | NTVPQVTNFNSTNEDQN [SRB5] | 2.9 ± 0.051
76 | NVAHRIKEDIKKQPSIL [SNF2] | 3.19 ± 0.12
77 | NVDGNIKIVYALTTIKG [RPS18A] | 1.23 ± 0.11
78 | NVDVCVMEIGKDAEYLR [PUP1] | 2.39 ± 0.051
79 | NVFTPEISSQIEILVKD [RRI2] | 1.3 ± 0.066

Row | Sequence | protein stability index
80 | NVGDNNSTASSSNISPE [ARP7] | 3.08 ± 0.045
81 | NVHGSLEPFLLMLEDTD [BRR2] | 2.94 ± 0.059
82 | NVKTSVSQLYRISEKSV [RPO31] | 3.16 ± 0.083
83 | NVLVTMPVAPTMEVKSF [YMR129W/POM152] | 1.46 ± 0.068
84 | NVSFVLPDEKSDAMSID [YCG1] | 3.21 ± 0.067
85 | NVTFGSKKDPRILKNVS [YMR153W/NUP53] | 2.67 ± 0.035
86 | NVTSSGDHNKLRSTIAN [YML103C/NUP188] | 2.02 ± 0.033
87 | NWIKPSDSEIPPLLVYK [PRP8] | 2.12 ± 0.063
88 | NWLSIFNDFSNIKTSEW [REC8] | 2.91 ± 0.085
89 | NWYKSKKKAFTKYSAKY [RPL3] | 3.01 ± 0.045
90 | NYDIITASSLAHDYNND [YML103C/NUP188] | 2.33 ± 0.056
91 | NYHPNASITPYKLVNKN [RPN4] | 2.05 ± 0.068
92 | PAGFTHKLSNWLFGWND [YDL088C/ASM4] | 2.96 ± 0.043
93 | PAGHAGNPTNISSPIVA [YDL088C/ASM4] | 3.02 ± 0.046
94 | PAIPPVIDLEKIKFDES [BRR2] | 2.77 ± 0.082
95 | PANHLQSDFCLSWCPSR [YGL100W/SEH1] | 2.4 ± 0.06
96 | PCVEDGFVIQDRETALD [RPB2] | 3.2 ± 0.078
97 | PDAQNELPKFILSDSPL [DIS3] | 2.92 ± 0.079
98 | PDCKIKIAHGTTTLAFR [PRE2] | 2.71 ± 0.064
99 | PDDEKFTDENTIVLSLN [RPC40] | 3.47 ± 0.087
100 | PDIADIPRTFRTPVPST [SNF5] | 2.01 ± 0.072
101 | PDKDYLLSIPISCPLIG [FAS1] | 1.07 ± 0.077
102 | PDLQFIVISLKNTMFEK [SMC1] | 2.77 ± 0.045
103 | PDPNFENSIGYNNRKCW [PRP8] | 3.11 ± 0.12
104 | PDRQSMDSRVAHGNILI [SRB5] | 3.14 ± 0.05
105 | PEDALVNDFSDITSDQL [SMC3] | 3.31 ± 0.062
